According to article PMC6510891, “Functional duplication of Rap1 in methylotrophic yeasts”:

Assays:
HpRap1B [1] = biological target: T1, HpRap1B (Hansenula polymorpha DL-1, UniProt W1QDN2 1-576); test: competition SPR; score - vs PICKU surface; SPR: 10 mM HEPES-NaOH pH 7.5, 150 mM NaCl, 0.5 mM DTT, 0.05% Tween 20, 1 mg/ml BSA, 0.02 mg/ml salmon sperm DNA; competition 2 nM protein with 20 or 200 nM competitor. EMSA: 20 mM HEPES-NaOH pH 7.5, 50 mM NaCl, 0.2 mg/ml BSA, 5% glycerol, 0.1 mg/ml salmon sperm DNA, room temperature; conditions: protein: recombinant; blunt
T1 sequence: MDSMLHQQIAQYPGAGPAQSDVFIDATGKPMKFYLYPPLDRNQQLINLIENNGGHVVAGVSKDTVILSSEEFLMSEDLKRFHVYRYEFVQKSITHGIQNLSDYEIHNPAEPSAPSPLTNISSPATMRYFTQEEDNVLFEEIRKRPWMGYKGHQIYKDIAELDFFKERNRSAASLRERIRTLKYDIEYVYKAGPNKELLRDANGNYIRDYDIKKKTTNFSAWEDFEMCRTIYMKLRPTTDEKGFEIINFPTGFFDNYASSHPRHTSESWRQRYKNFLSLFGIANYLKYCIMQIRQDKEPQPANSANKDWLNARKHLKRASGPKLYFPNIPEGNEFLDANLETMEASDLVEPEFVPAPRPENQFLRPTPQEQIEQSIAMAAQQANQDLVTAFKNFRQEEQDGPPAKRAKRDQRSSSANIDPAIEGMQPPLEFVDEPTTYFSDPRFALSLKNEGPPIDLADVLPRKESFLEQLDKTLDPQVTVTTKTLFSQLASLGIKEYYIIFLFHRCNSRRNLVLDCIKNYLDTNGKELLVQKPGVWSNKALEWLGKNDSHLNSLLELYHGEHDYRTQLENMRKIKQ

HpRap1A [2] = biological target: T2, HpRap1A (Hansenula polymorpha DL-1, UniProt W1Q7Z6 1-613); test: competition SPR; score +++ vs VIIrAbs surface; SPR: 10 mM HEPES-NaOH pH 7.5, 150 mM NaCl, 0.5 mM DTT, 0.05% Tween 20, 1 mg/ml BSA, 0.02 mg/ml salmon sperm DNA; competition 2 nM protein with 20 or 200 nM competitor. EMSA: 20 mM HEPES-NaOH pH 7.5, 50 mM NaCl, 0.2 mg/ml BSA, 5% glycerol, 0.1 mg/ml salmon sperm DNA, room temperature; conditions: protein: recombinant; blunt
T2 sequence: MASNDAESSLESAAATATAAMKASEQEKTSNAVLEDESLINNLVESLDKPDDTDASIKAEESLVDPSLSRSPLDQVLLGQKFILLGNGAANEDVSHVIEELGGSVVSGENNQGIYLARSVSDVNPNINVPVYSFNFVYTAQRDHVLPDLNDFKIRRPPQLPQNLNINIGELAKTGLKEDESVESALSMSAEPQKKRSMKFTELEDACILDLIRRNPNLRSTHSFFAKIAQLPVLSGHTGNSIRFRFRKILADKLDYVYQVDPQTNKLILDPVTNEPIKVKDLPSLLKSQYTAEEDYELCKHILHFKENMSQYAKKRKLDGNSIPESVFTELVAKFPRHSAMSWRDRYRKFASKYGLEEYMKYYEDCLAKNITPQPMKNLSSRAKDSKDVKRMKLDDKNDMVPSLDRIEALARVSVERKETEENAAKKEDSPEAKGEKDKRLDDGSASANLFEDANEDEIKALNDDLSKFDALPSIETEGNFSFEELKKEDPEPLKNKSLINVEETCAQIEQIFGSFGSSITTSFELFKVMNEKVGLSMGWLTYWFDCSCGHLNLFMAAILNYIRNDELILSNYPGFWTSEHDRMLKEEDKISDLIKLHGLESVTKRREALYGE

HpRap1A [3] = biological target: T2, HpRap1A; test: SPR; kinetic fit; SPR: 10 mM HEPES-NaOH pH 7.5, 150 mM NaCl, 0.5 mM DTT, 0.05% Tween 20, 1 mg/ml BSA, 0.02 mg/ml salmon sperm DNA; competition 2 nM protein with 20 or 200 nM competitor. EMSA: 20 mM HEPES-NaOH pH 7.5, 50 mM NaCl, 0.2 mg/ml BSA, 5% glycerol, 0.1 mg/ml salmon sperm DNA, room temperature; conditions: protein: recombinant; 3' overhang 20 nt on strand 2
HpRap1B [4] = biological target: T1, HpRap1B; test: competition SPR; score ++ vs PICKU surface; SPR: 10 mM HEPES-NaOH pH 7.5, 150 mM NaCl, 0.5 mM DTT, 0.05% Tween 20, 1 mg/ml BSA, 0.02 mg/ml salmon sperm DNA; competition 2 nM protein with 20 or 200 nM competitor. EMSA: 20 mM HEPES-NaOH pH 7.5, 50 mM NaCl, 0.2 mg/ml BSA, 5% glycerol, 0.1 mg/ml salmon sperm DNA, room temperature; conditions: protein: recombinant; blunt
HpRap1A [5] = biological target: T2, HpRap1A; test: competition SPR; score - vs VIIrAbs surface; SPR: 10 mM HEPES-NaOH pH 7.5, 150 mM NaCl, 0.5 mM DTT, 0.05% Tween 20, 1 mg/ml BSA, 0.02 mg/ml salmon sperm DNA; competition 2 nM protein with 20 or 200 nM competitor. EMSA: 20 mM HEPES-NaOH pH 7.5, 50 mM NaCl, 0.2 mg/ml BSA, 5% glycerol, 0.1 mg/ml salmon sperm DNA, room temperature; conditions: protein: recombinant; blunt
HpRap1A [6] = biological target: T2, HpRap1A; test: SPR; SPR: 10 mM HEPES-NaOH pH 7.5, 150 mM NaCl, 0.5 mM DTT, 0.05% Tween 20, 1 mg/ml BSA, 0.02 mg/ml salmon sperm DNA; competition 2 nM protein with 20 or 200 nM competitor. EMSA: 20 mM HEPES-NaOH pH 7.5, 50 mM NaCl, 0.2 mg/ml BSA, 5% glycerol, 0.1 mg/ml salmon sperm DNA, room temperature; conditions: protein: recombinant; 3' overhang 20 nt on strand 2
HpRap1B [7] = biological target: T1, HpRap1B; test: as above; conditions: protein: recombinant; 3' overhang 20 nt on strand 2
HpRap1B [8] = biological target: T1, HpRap1B; test: SPR; kinetic fit; SPR: 10 mM HEPES-NaOH pH 7.5, 150 mM NaCl, 0.5 mM DTT, 0.05% Tween 20, 1 mg/ml BSA, 0.02 mg/ml salmon sperm DNA; competition 2 nM protein with 20 or 200 nM competitor. EMSA: 20 mM HEPES-NaOH pH 7.5, 50 mM NaCl, 0.2 mg/ml BSA, 5% glycerol, 0.1 mg/ml salmon sperm DNA, room temperature; conditions: protein: recombinant; 3' overhang 20 nt on strand 2

B1: VIIrAbs (competitor) (dsDNA)
DNA 1: GGCAGGCGGTGTAGGGATGCGGC
DNA 2: GCCGCATCCCTACACCGCCTGCC
binding result (HpRap1B [1]): no binding | binding result (HpRap1A [2]): binds

B2: CANAL (SPR) (dsDNA)
DNA 1: ACTTCTTGGTGTACGGATGTCTA
DNA 2: TAGACATCCGTACACCAAGAAGTCCTCTACGTCCTCCTGCTCC
Kd (HpRap1A [3]): 0.05 ± 0.014 nM

B3: SACCE (competitor) (dsDNA)
DNA 1: GTGTGTGGGTGTGTGGGTGTGTG
DNA 2: CACACACCCACACACCCACACAC
binding result (HpRap1B [4]): binds

B4: DEKBR (dsDNA)
DNA 1: GGATTGGTGGATTGGTGGATTGGT
DNA 2: ACCAATCCACCAATCCACCAATCC
binding result (HpRap1B [1]): no binding | binding result (HpRap1A [5]): no binding

B5: PICPA (dsDNA)
DNA 1: GGATGCTGGATGCTGGATGCTGGATGCT
DNA 2: AGCATCCAGCATCCAGCATCCAGCATCC
binding result (HpRap1B [1]): no binding | binding result (HpRap1A [5]): no binding

B6: rnd1 (SPR) (dsDNA)
DNA 1: ACGACTCACTGTAGATACGACTCACTGTAGAT
DNA 2: ATCTACAGTGAGTCGTATCTACAGTGAGTCGTCCTCTACGTCCTCCTGCTCC
binding result (HpRap1A [6]): no binding | binding result (HpRap1B [7]): no binding

B7: rnd1 (competitor) (dsDNA)
DNA 1: ACGACTCACTGTAGATACGACTCACTGTAGAT
DNA 2: ATCTACAGTGAGTCGTATCTACAGTGAGTCGT
binding result (HpRap1B [1]): no binding | binding result (HpRap1A [5]): no binding

B8: RPS22b (dsDNA)
DNA 1: AATGTTCGGTTCGAGGAGTTCTT
DNA 2: AAGAACTCCTCGAACCGAACATTCCTCTACGTCCTCCTGCTCC
binding result (HpRap1A [6]): no binding

B9: RPL36b (dsDNA)
DNA 1: GGACAGTGGTGTAGGGGGTAGAG
DNA 2: CTCTACCCCCTACACCACTGTCCCCTCTACGTCCTCCTGCTCC
binding result (HpRap1A [6]): no binding

B10: CANAL (competitor) (dsDNA)
DNA 1: ACTTCTTGGTGTACGGATGTCTA
DNA 2: TAGACATCCGTACACCAAGAAGT
binding result (HpRap1A [2]): binds

B11: RPS16 (dsDNA)
DNA 1: CAAACCCCGTGTAAGGGTGCCTA
DNA 2: TAGGCACCCTTACACGGGGTTTGCCTCTACGTCCTCCTGCTCC
Kd (HpRap1A [3]): 0.5 ± 0.08 nM | binding result (HpRap1B [7]): no binding

B12: PICKU (SPR) (dsDNA)
DNA 1: TGAACTAGGAGCGAGGTGTGTTAC
DNA 2: GTAACACACCTCGCTCCTAGTTCACCTCTACGTCCTCCTGCTCC
Kd (HpRap1B [8]): 0.27 ± 0.08 nM | binding result (HpRap1A [6]): no binding

B13: DEBHA (dsDNA)
DNA 1: GTGTTGAGGTGTAGGGATGTTGA
DNA 2: TCAACATCCCTACACCTCAACAC
binding result (HpRap1A [2]): binds

B14: HANPO4 (competitor) (dsDNA)
DNA 1: GGGTGGCGGGGTGGCGGGGTGGCGGGGTGGCG
DNA 2: CGCCACCCCGCCACCCCGCCACCCCGCCACCC
binding result (HpRap1A [5]): no binding

B15: PACTA (dsDNA)
DNA 1: TGTGAGTGGTGTGAGTGGTGTGAGTGG
DNA 2: CCACTCACACCACTCACACCACTCACA
binding result (HpRap1A [5]): no binding

B16: CANMA (dsDNA)
DNA 1: CTCGCTTGGTGTACGGATGCAGA
DNA 2: TCTGCATCCGTACACCAAGCGAG
binding result (HpRap1A [2]): binds

B17: rnd2 (dsDNA)
DNA 1: AAATCTAGACATGAAAAAAAAAATGTTAGTAATCGAAATCTC
DNA 2: GAGATTTCGATTACTAACATTTTTTTTTTCATGTCTAGATTT
binding result (HpRap1B [1]): no binding | binding result (HpRap1A [5]): no binding

B18: CANAR (competitor) (dsDNA)
DNA 1: GGTGTTGGGTGTTGGGTGTTGGG
DNA 2: CCCAACACCCAACACCCAACACC
binding result (HpRap1A [5]): no binding | binding result (HpRap1B [4]): binds

B19: PICME (dsDNA)
DNA 1: TAGAACTAGGTGTGCGGGGTATAATAG
DNA 2: CTATTATACCCCGCACACCTAGTTCTA
binding result (HpRap1A [5]): no binding | binding result (HpRap1B [4]): binds

B20: RPS14 (dsDNA)
DNA 1: GTGTTCAGGTGTGAGGTGTGTTT
DNA 2: AAACACACCTCACACCTGAACACCCTCTACGTCCTCCTGCTCC
Kd (HpRap1B [8]): 0.048 ± 0.007 nM | binding result (HpRap1A [6]): no binding

B21: CANAR (SPR) (dsDNA)
DNA 1: GGTGTTGGGTGTTGGGTGTTGGG
DNA 2: CCCAACACCCAACACCCAACACCCCTCTACGTCCTCCTGCTCC
binding result (HpRap1A [6]): no binding
